The text below walks through data of patent US20240270839A1 (ELPISCIENCE SUZHOU BIOPHARMA, published 2024).

Several values for one entry are separate records, joined by “and”; a condition that tells them apart may be missing. Identical values can stand only once. Like-named read-outs stand apart in the source and are kept apart here.

In assay [1] the target is human CLDN18.2 (hCLDN18.2), expressed on cells (human). The assay is described as follows: cell-based or functional assay.
The target in assay [2] is T1, human CLDN18.2 (hCLDN18.2), expressed on cells (human).
T1 construct: the constructs in the cell lines are not described; also called Claudin18.2; HEK293-hCLDN18.2
As to the kind of experiment: FACS, SNU620 cells over-expressing hCLDN18.2. Background: A flow cytometer gives signals particle by particle.

Assay [3] has as its target T1, human CLDN18.2 (hCLDN18.2), expressed …. The assay is described as follows: cell-based or functional assay. This is another data set of the same source.
For assay [4] the target is unchanged. As to the kind of experiment: cell-based or functional assay. This is another data set of the same source.
The target is the same in assay [5]. The assay is described as follows: FACS, MFC cells over-expressing hCLDN18.2.

B1: hu35B4.H1L2-ADE (antibody, human IgG1)
heavy: EVQLLESGGGLVQPGGSLRLSCAASGFTLSSYALSWVRQAPGKGLEWVSYISNLGGSTFYPDTVKGRFTISRDNSKNTLYLQMNSLRAEDTAVYYCAKHLYNYDAFASWGQGTLVTVSSASTKGPSVFPLAPSSKSTSGGTAALGCLVKDYFPEPVTVSWNSGALTSGVHTFPAVLQSSGLYSLSSVVTVPSSSLGTQTYICNVNHKPSNTKVDKKVEPKSCDKTHTCPPCPAPELLAGPDVFLFPPKPKDTLMISRTPEVTCVVVDVSHEDPEVKFNWYVDGVEVHNAKTKPREEQYNSTYRVVSVLTVLHQDWLNGKEYKCKVSNKALPAPEEKTISKAKGQPREPQVYTLPPSREEMTKNQVSLTCLVKGFYPSDIAVEWESNGQPENNYKTTPPVLDSDGSFFLYSKLTVDKSRWQQGNVFSCSVMHEALHNHYTQKSLSLSPGK
VL: DIQLTQSPSFLSASVGDRVTITCRASSSVNYIHWYQQKPGKAPKALIYATSNLASGVPSRFSGSGSGTEYTLTISSLQPEDFATYYCQQWNSNPLTFGQGTKLEIK
With B1, the “ADCC EC50 (nM), NK-CD16a effector cells” value in assay [1] worked out at 7.1e-05 nM.

B2: hu35B4.H1L2-DLE (antibody, human IgG1)
heavy: EVQLLESGGGLVQPGGSLRLSCAASGFTLSSYALSWVRQAPGKGLEWVSYISNLGGSTFYPDTVKGRFTISRDNSKNTLYLQMNSLRAEDTAVYYCAKHLYNYDAFASWGQGTLVTVSSASTKGPSVFPLAPSSKSTSGGTAALGCLVKDYFPEPVTVSWNSGALTSGVHTFPAVLQSSGLYSLSSVVTVPSSSLGTQTYICNVNHKPSNTKVDKKVEPKSCDKTHTCPPCPAPELLGGPDVFLFPPKPKDTLMISRTPEVTCVVVDVSHEDPEVKFNWYVDGVEVHNAKTKPREEQYNSTYRVVSVLTVLHQDWLNGKEYKCKVSNKALPLPEEKTISKAKGQPREPQVYTLPPSREEMTKNQVSLTCLVKGFYPSDIAVEWESNGQPENNYKTTPPVLDSDGSFFLYSKLTVDKSRWQQGNVFSCSVMHEALHNHYTQKSLSLSPGK
VL: DIQLTQSPSFLSASVGDRVTITCRASSSVNYIHWYQQKPGKAPKALIYATSNLASGVPSRFSGSGSGTEYTLTISSLQPEDFATYYCQQWNSNPLTFGQGTKLEIK
Take B2: in assay [1], the “ADCC EC50 (nM), NK-CD16a effector cells” value came out at 1.32e-05 nM.

B3: hu35B4.H1L2-DE (antibody, human IgG1)
heavy: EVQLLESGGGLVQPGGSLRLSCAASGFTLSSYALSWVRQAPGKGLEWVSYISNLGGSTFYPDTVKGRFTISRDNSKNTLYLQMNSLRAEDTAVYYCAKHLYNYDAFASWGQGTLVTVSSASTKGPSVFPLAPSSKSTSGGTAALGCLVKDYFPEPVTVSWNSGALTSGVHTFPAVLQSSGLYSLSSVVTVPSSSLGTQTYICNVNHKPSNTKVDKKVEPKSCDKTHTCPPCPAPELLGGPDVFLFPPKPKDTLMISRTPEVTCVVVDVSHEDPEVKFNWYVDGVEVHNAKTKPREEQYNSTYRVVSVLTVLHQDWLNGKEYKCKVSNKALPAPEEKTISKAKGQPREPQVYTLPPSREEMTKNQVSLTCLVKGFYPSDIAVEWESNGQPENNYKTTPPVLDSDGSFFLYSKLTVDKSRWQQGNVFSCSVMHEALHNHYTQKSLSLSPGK
VL: DIQLTQSPSFLSASVGDRVTITCRASSSVNYIHWYQQKPGKAPKALIYATSNLASGVPSRFSGSGSGTEYTLTISSLQPEDFATYYCQQWNSNPLTFGQGTKLEIK
Turning to B3, in assay [1], the “ADCC EC50 (nM), NK-CD16a effector cells” value was 2.75e-05 nM.

B4: hu35B4.H3L4 (antibody, V domains shown)
VH: EVQLLESGGGLVQPGGSLRLSCAASGFTLSSYALSWVRQAPGKGLEWVAYISNLGGSTFYPDTVKGRFTISRDNSKNTLYLQMNSLRAEDTAVYYCATHLYNYDAFASWGQGTLVTVSS
VL: DIQLTQSPSFLSASVGDRVTMTCRASSSVNYIHWYQQKPGKSPKALIYATSNLASGVPSRFSGSGSGTEYTLTISSVQPEDFATYYCQQWNSNPLTFGQGTKLEIK
notes: humanized 35B4
On to B4, for which the EC50 – broadly, the midpoint of the concentration-response curve – in assay [2] was 0.35 nM.

B5: ch99H8 (antibody, V domains shown)
VH: QVQLQQSGPELVKPGASVKLSCKASGYSFTNFDINWVKQRPGQGLQWIGRLYPRDGTTTYNEKFKGKASLTVDTSSTTSYMDLHSLTSEDSAVYFCVRGNYGNSFAYWGQGTLVTVSA
VL: DIVMTQSPSSLTVTAREKVIMNCKSSQSLFNSGNQKNYLTWYQQKPGQSPKLLIYWASTRQSGVPDRFTGSGSGTDFTLTISTVQAEDLAVYFCQNGFSFPYTFGGGTKLEMN
Turning to B5, in assay [3], the “PBMC VS NUGC4 ADCC (EC50 nM)” value was determined as 3.31 nM.

B6: ch33G12 (antibody, V domains shown)
VH: EVKLVESGGGLVQPGGSLKLSCAASGFTFSRYAMSWVRQTPEKRLEWVAYISIGGTTYYPDTIKGRFTISRDNAKNTLYLQMSSLKSEDTAMYYCTRHYYGHDVMDYWGQGTSVTVSS
VL: QIVLSQSPTILSASPGEKVTMTCRATSSVSYMHWFQQKPGSSPKPWIYATSNLASGVPARFSGSGSGTSYSLTISRVEAEDAATYYCQQWSRNPLTFGAGTKLELK
Regarding B6, in assay [3], the “PBMC VS NUGC4 ADCC (EC50 nM)” value was determined as 0.458 nM.

B7: ch60F11 (antibody, V domains shown)
VH: QVQLQQPGAELVKPGASVKLSCKASGYTFTSYWMHWVKQRPGQGLEWIGMIHPNSGSTNYNEKFKSKATLTVDKSSSTAYMQLSSLTSEDSAVYYCARMGLGNAMDYWGQGTSVTVSS
VL: DIVMTQSPSSLTVTAGEKVTLSCKSSQSLLNSGNQRNYLTWYQQKPGQPPKLLIYWASTRESGVPDRFTGSGSGTDFTLTISSVQAEDLAVYYCQNAYSYPLTFGAGTKLELK
Consider B7, for which the “PBMC VS NUGC4 ADCC (EC50 nM)” value in assay [3] stood at 8.69 nM.

B8: ch22E12 (antibody, V domains shown)
VH: QVQLQQPGTELVKTGTSVKLSCKASGYTFTNWVHWVIQRPGQGLEWIGEINPTNGRSNYNEKFKKKATLTLDRSSTTAYMQLSSLTSEDSAVYFCAGIYYGNSFAHWGQGTLVTVSA
VL: DIVMTQSPSSLTVTAGEKVTLSCKSSQSLLNSGNQKNYLTWYQQKPGQPPKLLIYWSSTRESGVPDRFTGSGSGTDFTLTISSVQAEDLAVYHCQNNYYYPLTFGAGTKLELK
On to B8, for which the “PBMC VS NUGC4 ADCC (EC50 nM)” value in assay [3] came out at 1.06 nM. Moreover, in assay [4], the “ADCC EC50 (nM), NK-CD16a effector cells” value came out at 0.126 nM. Besides, the 50% effective concentration (EC50) in assay [5] was 1.05 nM and 0.943 nM.

B9: ch97A9 (antibody, V domains shown)
VH: QVQLQQSGPELVKPGASMKLSCKASGYSFTRNDINWVKQRPGQGLEWIGLSYPRDGTTQYNGKFKGKATLTVDTSSSTAYMELRSLTSEDSAVYFCARGYYGNSFAYWGQGTLVTVSA
VL: DIVMTQSPSSLTVTAGEKVTMSCKSSQSLLNSGNQKNYLTWYQQKPGQPPKLLIYWASTRESGVPDRFTGSGSGTYFTLTISSVQAEDLAVYFCQNDYYFPYTFGGGTKLEIK
B9: in assay [3], the “PBMC VS NUGC4 ADCC (EC50 nM)” value was determined as 6.93 nM.

B10: hu22E12.H1L2-ADE (antibody, human IgG1)
heavy: QVQLVQSGAEVKKPGASVKVSCKASGYTFTNWVHWVRQAPGQGLEWMGEINPTNARSNYNEKFKKRVTMTRDTSTSTVYMELSSLRSEDTAVYYCARIYYGNSFAHWGQGTLVTVSSASTKGPSVFPLAPSSKSTSGGTAALGCLVKDYFPEPVTVSWNSGALTSGVHTFPAVLQSSGLYSLSSVVTVPSSSLGTQTYICNVNHKPSNTKVDKKVEPKSCDKTHTCPPCPAPELLAGPDVFLFPPKPKDTLMISRTPEVTCVVVDVSHEDPEVKFNWYVDGVEVHNAKTKPREEQYNSTYRVVSVLTVLHQDWLNGKEYKCKVSNKALPAPEEKTISKAKGQPREPQVYTLPPSREEMTKNQVSLTCLVKGFYPSDIAVEWESNGQPENNYKTTPPVLDSDGSFFLYSKLTVDKSRWQQGNVFSCSVMHEALHNHYTQKSLSLSPGK
VL: DIVMTQSPDSLAVSLGERATINCKSSQSLLNAGNQKNYLTWYQQKPGQPPKLLIYWSSTRESGVPDRFSGSGSGTDFTLTISSLQAEDVAVYHCQNNYYYPLTFGGGTKLEIK
B10: the “ADCC EC50 (nM), NK-CD16a effector cells” value in assay [4] was 0.00765 nM.

B11: hu22E12.H1L2-DE (antibody, human IgG1)
heavy: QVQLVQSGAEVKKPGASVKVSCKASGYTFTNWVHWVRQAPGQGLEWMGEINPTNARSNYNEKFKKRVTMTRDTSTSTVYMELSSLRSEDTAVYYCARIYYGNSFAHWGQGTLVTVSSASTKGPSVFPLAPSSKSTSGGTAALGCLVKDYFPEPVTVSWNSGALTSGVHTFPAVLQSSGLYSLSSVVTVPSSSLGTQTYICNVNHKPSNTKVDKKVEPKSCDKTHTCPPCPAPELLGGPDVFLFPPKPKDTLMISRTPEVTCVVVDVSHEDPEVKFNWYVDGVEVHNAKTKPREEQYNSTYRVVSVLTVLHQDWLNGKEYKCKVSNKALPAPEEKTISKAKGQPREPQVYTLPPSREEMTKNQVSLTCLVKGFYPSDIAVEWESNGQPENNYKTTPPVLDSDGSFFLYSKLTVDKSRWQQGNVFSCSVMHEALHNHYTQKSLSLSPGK
VL: DIVMTQSPDSLAVSLGERATINCKSSQSLLNAGNQKNYLTWYQQKPGQPPKLLIYWSSTRESGVPDRFSGSGSGTDFTLTISSLQAEDVAVYHCQNNYYYPLTFGGGTKLEIK
B11: the “ADCC EC50 (nM), NK-CD16a effector cells” value in assay [4] was 0.00637 nM.

B12: hu22E12.H1L2-DLE (antibody, human IgG1)
heavy: QVQLVQSGAEVKKPGASVKVSCKASGYTFTNWVHWVRQAPGQGLEWMGEINPTNARSNYNEKFKKRVTMTRDTSTSTVYMELSSLRSEDTAVYYCARIYYGNSFAHWGQGTLVTVSSASTKGPSVFPLAPSSKSTSGGTAALGCLVKDYFPEPVTVSWNSGALTSGVHTFPAVLQSSGLYSLSSVVTVPSSSLGTQTYICNVNHKPSNTKVDKKVEPKSCDKTHTCPPCPAPELLGGPDVFLFPPKPKDTLMISRTPEVTCVVVDVSHEDPEVKFNWYVDGVEVHNAKTKPREEQYNSTYRVVSVLTVLHQDWLNGKEYKCKVSNKALPLPEEKTISKAKGQPREPQVYTLPPSREEMTKNQVSLTCLVKGFYPSDIAVEWESNGQPENNYKTTPPVLDSDGSFFLYSKLTVDKSRWQQGNVFSCSVMHEALHNHYTQKSLSLSPGK
VL: DIVMTQSPDSLAVSLGERATINCKSSQSLLNAGNQKNYLTWYQQKPGQPPKLLIYWSSTRESGVPDRFSGSGSGTDFTLTISSLQAEDVAVYHCQNNYYYPLTFGGGTKLEIK
For B12, the “ADCC EC50 (nM), NK-CD16a effector cells” value in assay [4] stood at 0.00503 nM.

B13: hu22E12.H1L2-VLPLL (antibody, human IgG1)
heavy: QVQLVQSGAEVKKPGASVKVSCKASGYTFTNWVHWVRQAPGQGLEWMGEINPTNARSNYNEKFKKRVTMTRDTSTSTVYMELSSLRSEDTAVYYCARIYYGNSFAHWGQGTLVTVSSASTKGPSVFPLAPSSKSTSGGTAALGCLVKDYFPEPVTVSWNSGALTSGVHTFPAVLQSSGLYSLSSVVTVPSSSLGTQTYICNVNHKPSNTKVDKKVEPKSCDKTHTCPPCPAPELVGGPSVFLLPPKPKDTLMISRTPEVTCVVVDVSHEDPEVKFNWYVDGVEVHNAKTKPPEEQYNSTLRVVSVLTVLHQDWLNGKEYKCKVSNKALPAPIEKTISKAKGQPREPQVYTLPPSREEMTKNQVSLTCLVKGFYPSDIAVEWESNGQPENNYKTTPLVLDSDGSFFLYSKLTVDKSRWQQGNVFSCSVMHEALHNHYTQKSLSLSPGK
VL: DIVMTQSPDSLAVSLGERATINCKSSQSLLNAGNQKNYLTWYQQKPGQPPKLLIYWSSTRESGVPDRFSGSGSGTDFTLTISSLQAEDVAVYHCQNNYYYPLTFGGGTKLEIK
As for B13, the “ADCC EC50 (nM), NK-CD16a effector cells” value in assay [4] worked out at 0.00997 nM.

B14: hu22E12.H1L2 (antibody, V domains shown)
VH: QVQLVQSGAEVKKPGASVKVSCKASGYTFTNWVHWVRQAPGQGLEWMGEINPTNARSNYNEKFKKRVTMTRDTSTSTVYMELSSLRSEDTAVYYCARIYYGNSFAHWGQGTLVTVSS
VL: DIVMTQSPDSLAVSLGERATINCKSSQSLLNAGNQKNYLTWYQQKPGQPPKLLIYWSSTRESGVPDRFSGSGSGTDFTLTISSLQAEDVAVYHCQNNYYYPLTFGGGTKLEIK
notes: humanized 22E12
Consider B14, for which the “ADCC EC50 (nM), NK-CD16a effector cells” value in assay [4] came to 0.144 nM. In assay [5], the concentration giving a half-maximal response (EC50) worked out at 1.32 nM.
